Results taken from patent US8394929B2, “Nogo receptor-mediated blockade of axonal growth” (Yale University, priority 2000, dated 2013).

Legend:
[1] = target: T1, wtNgR (Mus musculus, UniProt Q99PI8); experiment: AP-NgR binding to COS-7 cells transfected with wtNgR
T1 construct: wtNgR encodes residues 1 to 473 of mNgR; vector secretion signal (pSecTag2) (N); 6xHis (C); expressed in transfected cells; host or cells: COS-7
T1 sequence (Q99PI8 27-473): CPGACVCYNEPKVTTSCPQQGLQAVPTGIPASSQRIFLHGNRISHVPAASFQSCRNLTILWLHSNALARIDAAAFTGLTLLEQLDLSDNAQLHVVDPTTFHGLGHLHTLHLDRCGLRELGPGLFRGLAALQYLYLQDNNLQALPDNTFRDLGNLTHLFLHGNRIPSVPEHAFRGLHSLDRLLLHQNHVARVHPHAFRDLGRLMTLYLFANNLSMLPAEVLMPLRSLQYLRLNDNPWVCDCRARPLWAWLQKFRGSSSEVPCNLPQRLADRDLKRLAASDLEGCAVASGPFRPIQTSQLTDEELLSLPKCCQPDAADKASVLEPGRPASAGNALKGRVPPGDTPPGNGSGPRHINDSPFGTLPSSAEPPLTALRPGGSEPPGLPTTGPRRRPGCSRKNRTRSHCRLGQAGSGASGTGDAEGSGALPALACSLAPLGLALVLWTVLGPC
Description: (§1) A vector encoding AP-hNogo-A (1055-1120) was constructed as described in Fournier et al., supra). The vector encoding AP-NgR was made by ligating the mNgR coding sequence from residues 27-451 in frame with the signal sequence-6× His—placental alkaline phosphatase (AP) sequence of the vector known as pAP-6 (Nakamura et al., Neuron 2: 1093-1100, 1988).
(§2) NgR was tested for the ability to self-associate. For this study, mNgR [hereinafter, wtNgR or WT] and mNgR deletion mutants (see FIG. 18A) were transfected into COS-7 cells. Forty-eight hours after the transfection, the transfected COS-7 cells were washed with HBH. Cells were then incubated for 2 hours at 23° C. with a conditioned medium containing […] diluted in HBH. AP-fusion protein was detected as previously described for AP-Sema3A (Takahashi et al., Nature Neurosci. 1:487-493, 1998). Similar to the AP-Nogo binding profile, AP-NgR bound to wtNgR and NgRΔCT (FIG. 23). Nogo treatment had little, if any, effect on the NgR-NgR interaction (data not shown). […] The same NgR domains are required for GST-hNogo-A (1055-1120) binding and NgR oligomerization

[2] = target: T2, NgRΔCT (Mus musculus, UniProt Q99PI8); experiment: AP-NgR binding to COS-7 cells transfected with NgRΔCT
T2 construct: encodes residues 26 to 305 and 443 to473 of mNgR; vector secretion signal (pSecTag2) (N); 6xHis (C); expressed in transfected cells; host or cells: COS-7
T2 sequence (Q99PI8 with tags, fused parts or gaps): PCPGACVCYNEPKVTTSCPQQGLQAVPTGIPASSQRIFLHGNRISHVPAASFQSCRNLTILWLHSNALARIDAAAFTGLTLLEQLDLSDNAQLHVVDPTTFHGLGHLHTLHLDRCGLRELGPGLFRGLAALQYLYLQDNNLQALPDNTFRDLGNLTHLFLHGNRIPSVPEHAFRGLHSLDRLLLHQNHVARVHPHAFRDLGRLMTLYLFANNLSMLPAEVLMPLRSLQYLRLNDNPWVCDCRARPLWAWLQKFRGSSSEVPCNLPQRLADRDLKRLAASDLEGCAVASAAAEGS
Description: as §1, §2

[3] = test system: NgR deletion mutants; experiment: AP-NgR binding to COS-7 cells transfected with other NgR deletion mutants; parameters: species or system mouse
Description: as §1, §2

B1: AP-NgR: mNgR residues 27-451 fused to signal sequence-6x His-placental alkaline phosphatase (protein)
chain: HHHHHHIIPVEEENPDFWNREAAEALGAAKKLQPAQTAAKNLIIFLGDGMGVSTVTAARILKGQKKDKLGPEIPLAMDRFPYVALSKTYNVDKHVPDSGATATAYLCGVKGNFQTIGLSAAARFNQCNTTRGNEVISVMNRAKKAGKSVGVVTTTRVQHASPAGTYAHTVNRNWYSDADVPASARQEGCQDIATQLISNMDIDVILGGGRKYMFRMGTPDPEYPDDYSQGGTRLDGKNLVQEWLAKRQGARYVWNRTELMQASLDPSVTHLMGLFEPGDMKYEIHRDSTLDPSLMEMTEAALRLLSRNPRGFFLFVEGGRIDHGHHESRAYRALTETIMFDDAIERAGQLTSEEDTLSLVTADHSHVFSFGGYPLRGSSIFGLAPGKARDRKAYTVLLYGNGPGYVLKDGARPDVTESESGSPEYRQQSAVPLDEETHAGEDVAVFARGPQAHLVHGVQEQTFIAHVMAFAACLEPYTACDLAPPAGTTDAAHPGCPGACVCYNEPKVTTSCPQQGLQAVPTGIPASSQRIFLHGNRISHVPAASFQSCRNLTILWLHSNALARIDAAAFTGLTLLEQLDLSDNAQLHVVDPTTFHGLGHLHTLHLDRCGLRELGPGLFRGLAALQYLYLQDNNLQALPDNTFRDLGNLTHLFLHGNRIPSVPEHAFRGLHSLDRLLLHQNHVARVHPHAFRDLGRLMTLYLFANNLSMLPAEVLMPLRSLQYLRLNDNPWVCDCRARPLWAWLQKFRGSSSEVPCNLPQRLADRDLKRLAASDLEGCAVASGPFRPIQTSQLTDEELLSLPKCCQPDAADKASVLEPGRPASAGNALKGRVPPGDTPPGNGSGPRHINDSPFGTLPSSAEPPLTALRPGGSEPPGLPTTGPRRRPGCSRKNRTRSHCRLGQAGSGASGTGDAEGSGALP
- binding (in words) [1]: bound
- binding (in words) [2]: bound
- binding (in words) [3]: did not bind
